Laboratory results reported in the supplement of paper PMC9170038.

Test system: K4 kissing-loop RNA reporter
Test: apparent KD of K4 kissing-loop reporter; higher = weaker reporter binding
Details: Eterna round: R107; input ligand: theophylline 20 uM
Description: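 RNA-MaP round R107: designed RNA switches with theophylline, tryptophan, arginine or FMN aptamers are transcribed on-chip within common flanks. They are titrated with a labelled K4 kissing-loop RNA reporter in RNA-MaP buffer (100 mM Tris pH 7.5, 80 mM KCl, 4 mM MgCl2), without ligand or with the indicated ligand. Median apparent KD per design.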
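Also: bound reporter read as fluorescence of individual clusters on recovered sequencing chips by microscopy, with normalized cluster intensities fitted with a binding model.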

Row | Sequence | apparent KD of K4 kissing-loop reporter
1 | GGAGUUACCUGGGAUACCAGUCGGAGUCUCAGAGCUCGGAGUGAUGUUCUGGGAUGUUUCGGCCCUUGGCAGCUCUGGGACUCCU [#2 Exclusion - Theophylline B Attempt #17 (HarryS)] | 788 nM
2 | UCUGGAGCAUAUGAUACCAGCAGUGAGAGACAGGAAGUAUAGUGAUGUUAUAUGAGAGAAUGCCCUUGGCAGCGUGUGCAGUGGG [SSTheophylB.O] | 119 nM
3 | GUCUCAAAAGAGGCAAGCACUAACGAGGACAAGGAUAUCAUCUCAAUGAGAAGGUGUCCUCGUCCUUAGUGAUGUUAAGGAGUGC [Omei KL FMN A SS E v5] | 376 nM
4 | AGGUGCUACGGAAGGAGCGCACCAGUGAUGUUGGUGUGUGACCGUGACAUGGCAGUCAAGGUGCAGGUAGGUCGCCGUGGCCAUA [Rigela] | 156 nM
5 | GGAUUGCCAGUGAUGUUGGCAUAAACUGAAGGAGCGCGUGAAAACGCAGGUAGGUCGCAGAACCUUGCCAACUAUUUUAUUUACC [Ex Arginine A K4 23] | 103 nM
6 | AACGUUUUGAGAAGGAGCGCGUUCAGCAGUGAUGUUGCUUUACUUCAAUUUCUAGAUAAUUCGCAGGUAGGUCGCUCAAUACGUA [JR_Nu_ExcArginiB_Sub023] | 706 nM
7 | UUAGUUGAAAGUGAUACCAGACGAGUGAAGGGAAGAAAUUAAGUUGGAGUGAUGUUCCGCGUCCCUUGGCAGCACUUUGUAAUUU [Exclusion Theophylline B GF 22] | 161 nM
8 | UUUCGGUUCUGAGGAUAUUCGGACAAAUAUAGUGAUGUUGUAUAAGGAGGAGGGUGUUGGCAGUGCGGAGAAGGCAGACCACGAU [ExFMNB.X] | 575 nM
9 | GGGUUGAACUGAAGGAGCGAGAAAUAGAAAGUAAGAAGAUAAGCUAGUGAUGUUAGAAAUUCUCAGGUAGGUCGCAGUAAGAAUU [V3] | 280 nM
10 | CCCUCACGAGUGAUGUUCGUAGGGUACAGUCAGGAUAUCAUGCGGUUGAGAAGGGACAGAGAGGGCGGCGGCGGGUUGCUCAUCU [Isanausbe] | 266 nM
11 | GAUAUAGUGAUGUUAUAUACUGAUAGACAACGAGGACCGGUACGGCCGCCACUCGAGAGGGUGAAAAUGAUGAUAAAAUAAUGAU [#02 K4 Tryptophan A Exclusion] | 306 nM

Same assay, conditions: Eterna round: R107; input ligand: tryptophan 2.4 mM

Row | Sequence | apparent KD of K4 kissing-loop reporter
12 | CAUAGACAAGUGAUGUUUGUCAUAACCGAAGGAGCGUCGUUGAAGACAGGUAGGUCGCGGAUUAAUUUAGAUUAUAUUCUUUUUA [JR_SSArginiA_Sub020] | 542 nM
13 | GCAUCCAUGGCAGGAUAUAGGUUCGUGGAGUGAUGUUCCAUAGCCCGAGUGAUGUUCGUUAUCCACCUAGAAGGGCCAUGGAUGC [whbob_Ex_FMNB__2th212] | 210 nM
14 | ACCCAAGCCCAUCGCGCAGUGAUGUUGUCGCGAGGACCGGUACGGCCGCCACUCGAUAGCAGUGGCAACGUCAUCAUAAUCGAUU [theeternabot_exclusion_KL_Trp_A_50] | 563 nM
15 | UCGAAAUGCGUCUCCUAGUUACUCCGGGAAGGAGCGUGGAUAACCGCAGGUAGGUCGCCCGGAAGCCGGACCAGUGAUGUUGGUC [Exclusion Arginine A Gf 29] | 182 nM
16 | GGUAGCAUGGCGGCCGCCACUCGCAUCACAGGCCAUUAACCGCCCUCGUAAAGUGAUGUUUUACAGAGGACCGGGCCAUGCUACC | 195 nM
17 | UAAGAAUAAGUAGCAGUGAUGUUGCUACUACGAGGACCGGUACGGCCGCCACUCGAGUCCUCGAAACAUCACUGAACGAGGAAUA [(H,1)-(H,2)-(Trp1)-(Trp2)-(T)'-(H)'-(T)''] | 358 nM
18 | UGAUACCAGGCGGCCGCCACUCCUACAGGUCAAAGACCUGUAGAACUGGUUUUUUAGUGAUGUUGGAGGACCGGGCCUGGUAUCU [FiskerMod 30 - Jieux - Exclusion - Tryptophan B] | 321 nM
19 | UGGAGUUGACGAAAAGUCAACUCCUGAGAUACCAGUGACGAAAGUCACCCUUGGCAGCUCACUGCCAGUGAUGUUGGAACUAAAG [#02 K4 Theophylline A Same State] | 216 nM
20 | AUUAUAUUGUGAAGGAGCGCGAAUAGCAGUGAUGUUGCUAUCAAACGAUAUAUUAUUUACACGCAGGUAGGUCGCACAAUAUAUA [JR_Nu_SSArginiB_Sub022] | 155 nM
21 | UGCAUGCUUGGAGUGAUGUUCCAAGAUGAUACCAGUGCUUUUUUGCACCCUUGGCAGCGUCUGAUUGCAUGCACGUCGAAAGACG | 517 nM
22 | GGUCCGCGGUCGGCCGCCACUGAACAAGACCAGUGAUGUUGGAUCUUCCAGUGCGUUGGCUUUAACAGGACCGGGACCGUGGAGC [Titia] | 164 nM
23 | UGAUACCAGGCGGCCGCCACUCCCGCAGGUCAAAGACCUGCGAAGCUGGUUCUCCAGUGAUGUUGGAGGACCGGGCCUGGUAUCU [FiskerMod 26 - Jieux - Exclusion - Tryptophan B] | 436 nM
24 | AACCCAUGACUGGAUACCAGACUAUACAUGCUGAGUGAUGUUUAGCGGAGUCAUCUCUCGGUCCCUUGGCAGCCAACGUCACGCG [theeternabot_sameState_KL_Theo_B_33] | 373 nM
25 | UUGUUUUACUGAAGGAGCGGCAAUUGAUACGUAGAUAUAGUGAUGUUAUAUAAGAUAGAGAGCCAGGUAGGUCGCAGAUUUUUUU [ExArgB.V] | 118 nM
26 | AAUAAGUGUCAGCGAGUGAUGUUCGACGAUACCAGCCUCGAUAGAGGCCCUUGGCAGCGUAACGCAUGCCAAACUGGCACAAUAA [#SwitchBubble 7 #K4Early] | 441 nM
27 | GGUGUGCCAGUGAUGUUGGCAUAAACUGAAGGAGCGCGUGAAAACGCAGGUAGGUCGCAGAACCUUGCCAACUAUUUUAUUCACC [Ex Arginine A K4 25] | 168 nM
28 | AUGGUGGAGGAGUGAUGUUCUUGGAGUAGGUAGGAUAUGAGUGAUGUUAGAAGGAUCGGAGUGAUGUUCCAGGUGGUUGUGUUGU [KL-SSFMN-A2] | 412 nM
29 | AGUGAUGUUGUGUUAUGUUAGGGAAGUGAUCGAGGACCGGUACGGCCGCCACUCGAGUGAUGAGUGAGUGAUGUUUGUUUAGGGA [yytmullin] | 590 nM
30 | AAUUAAUGUAUAGAUUAUAUACAUUAAUCAGAGGAUAUGCAUUGUUGCAGAAGGCUGAAUGCAGUGAUGUUGCAAUGGAAAUUUA [JR_SSFMNA_Sub004] | 120 nM
31 | UGGUUAAGCAGUGAUGUUGCAAGUAAUGAUACCAGUUAAGAAGAGAACCCUUGGCAGCAUAAAGUGCGCUCUGAUGAGUGUGCUU [whbob_SS_Theo_A_w54] | 179 nM
32 | GAUGAAGAGUCGUUAGUUAGGGCUUUCGAUACCAGCGCCCGUCCACGCCCUUGGCAGCGAUUGAAAGAGUGAUGUUCUGUCAGGA [theeternabot_exclusion_KL_Theo_A_31] | 289 nM

Row | Sequence | apparent KD of K4 kissing-loop reporter
33 | UUUAUAUUGUCGGCCGCCACUGGAUUAAUAUUUGUAUAAUCUAGUUCAAAGUGAUGUUUUGAGUCCAGGACCGGGACAUUUGAUA [JR_Nu_ExcTryptoB_Sub029] | 491 nM
34 | AGGACGUGAGAAGAUACCAGAGAAUAAUGCAGUGAUGUUGCUAAAUAUAAUUUAAUAUAACUCCCUUGGCAGCUUAAGUUAGUCU [Theophylline b same state] | 73.9 nM
35 | UAGGGUUGAAAAGGAUAUUUACCCUAUGUCAACGAGUGAUGUUCGUGGACAUUAGGCACAACUCGUAAAGAAGGUUUCCAGACUC [theeternabot_sameState_KL_FMN_B_39] | 95.7 nM
36 | GCGCGUGUUAAAGGAUAUAGCAGGUGAUACAAGAAAGUGAGUGAUGUUUAUGUAGAUGAUGAUAUGUUAGAAGGUUAACACGCGC [abcdefghijklmnopqr] | 629 nM
37 | AAUAUAGUGAUGUUAUAUAAGAAGGAGUUACGAGGACCGGUACGGCCGCCACUCGAAACGAGUGAGGAUUUGGGAGAUUGGGUCC [SSTryptA.K] | 299 nM
38 | UGGAGUGCCUGGUCGUCACUAUGCCAACCACGAGGACCGGUACGGCCGCCACUCGUGAGGGAUAUUCAGAAAGUGAUGUUUUUUG [theeternabot_exclusion_KL_Trp_A_1] | 403 nM
39 | UUUUAUUAAUACUUCUAGUGAUGUUAGAUACGAGGACCGGUACGGCCGCCACUCGCUUAUUGGUUUAUAUAUUUUAUAUUCUUUA [JR_SSTryptoA_Sub014] | 281 nM
40 | AGAGGUCCCAGUGAUGUUGGUGCGUUUGGUCGAGGACCGGUACGGCCGCCACUCGUUCAUAGUAAGCCCUCUUUAGUGUUUCUAA [theeternabot_sameState_KL_Trp_A_9] | 186 nM
41 | AGAUUCGACACGGCCGCCACUUGUGGUGGAUUAUCCUAUGUAAGACAUGAGUGAUGUUCAUGUACAAGGACCGGGUGUUGAGUCU [KL-XTryp-B4 #analogue] | 425 nM
42 | CGAGUCAAUUCAGAUACCAGCCAAUUAAAGUCGAGUGAUGUUCGACAAUGAACAUCCAAAGGCCCUUGGCAGCUGAAUUGGGAAC [Same State Theophylline B GF 18] | 83.4 nM
43 | GGAGUUACCUGGGAUACCAGUCGGAGUCUCAGAGCUCGGAGUGAUGUUCUGGGAUGUUUCGGCCCUUGGCAGCUCUGGGACUCCU [#2 Exclusion - Theophylline B Attempt #17 (HarryS)] | 512 nM
44 | UCUGGAGCAUAUGAUACCAGCAGUGAGAGACAGGAAGUAUAGUGAUGUUAUAUGAGAGAAUGCCCUUGGCAGCGUGUGCAGUGGG [SSTheophylB.O] | 75.2 nM
45 | GUCUCAAAAGAGGCAAGCACUAACGAGGACAAGGAUAUCAUCUCAAUGAGAAGGUGUCCUCGUCCUUAGUGAUGUUAAGGAGUGC [Omei KL FMN A SS E v5] | 356 nM
46 | AGGUGCUACGGAAGGAGCGCACCAGUGAUGUUGGUGUGUGACCGUGACAUGGCAGUCAAGGUGCAGGUAGGUCGCCGUGGCCAUA [Rigela] | 136 nM
47 | GGAUUGCCAGUGAUGUUGGCAUAAACUGAAGGAGCGCGUGAAAACGCAGGUAGGUCGCAGAACCUUGCCAACUAUUUUAUUUACC [Ex Arginine A K4 23] | 79.8 nM
48 | AACGUUUUGAGAAGGAGCGCGUUCAGCAGUGAUGUUGCUUUACUUCAAUUUCUAGAUAAUUCGCAGGUAGGUCGCUCAAUACGUA [JR_Nu_ExcArginiB_Sub023] | 527 nM
49 | UUAGUUGAAAGUGAUACCAGACGAGUGAAGGGAAGAAAUUAAGUUGGAGUGAUGUUCCGCGUCCCUUGGCAGCACUUUGUAAUUU [Exclusion Theophylline B GF 22] | 121 nM
50 | UUUCGGUUCUGAGGAUAUUCGGACAAAUAUAGUGAUGUUGUAUAAGGAGGAGGGUGUUGGCAGUGCGGAGAAGGCAGACCACGAU [ExFMNB.X] | 621 nM
51 | GGGUUGAACUGAAGGAGCGAGAAAUAGAAAGUAAGAAGAUAAGCUAGUGAUGUUAGAAAUUCUCAGGUAGGUCGCAGUAAGAAUU [V3] | 258 nM
52 | CCCUCACGAGUGAUGUUCGUAGGGUACAGUCAGGAUAUCAUGCGGUUGAGAAGGGACAGAGAGGGCGGCGGCGGGUUGCUCAUCU [Isanausbe] | 215 nM
53 | GAUAUAGUGAUGUUAUAUACUGAUAGACAACGAGGACCGGUACGGCCGCCACUCGAGAGGGUGAAAAUGAUGAUAAAAUAAUGAU [#02 K4 Tryptophan A Exclusion] | 278 nM
